Columns and labels:
Test in all cases: cell-based or functional assay
human NPRA = biological target: T1, human NPRA (human, UniProt P16066 33-1061)
T1 sequence (looked up): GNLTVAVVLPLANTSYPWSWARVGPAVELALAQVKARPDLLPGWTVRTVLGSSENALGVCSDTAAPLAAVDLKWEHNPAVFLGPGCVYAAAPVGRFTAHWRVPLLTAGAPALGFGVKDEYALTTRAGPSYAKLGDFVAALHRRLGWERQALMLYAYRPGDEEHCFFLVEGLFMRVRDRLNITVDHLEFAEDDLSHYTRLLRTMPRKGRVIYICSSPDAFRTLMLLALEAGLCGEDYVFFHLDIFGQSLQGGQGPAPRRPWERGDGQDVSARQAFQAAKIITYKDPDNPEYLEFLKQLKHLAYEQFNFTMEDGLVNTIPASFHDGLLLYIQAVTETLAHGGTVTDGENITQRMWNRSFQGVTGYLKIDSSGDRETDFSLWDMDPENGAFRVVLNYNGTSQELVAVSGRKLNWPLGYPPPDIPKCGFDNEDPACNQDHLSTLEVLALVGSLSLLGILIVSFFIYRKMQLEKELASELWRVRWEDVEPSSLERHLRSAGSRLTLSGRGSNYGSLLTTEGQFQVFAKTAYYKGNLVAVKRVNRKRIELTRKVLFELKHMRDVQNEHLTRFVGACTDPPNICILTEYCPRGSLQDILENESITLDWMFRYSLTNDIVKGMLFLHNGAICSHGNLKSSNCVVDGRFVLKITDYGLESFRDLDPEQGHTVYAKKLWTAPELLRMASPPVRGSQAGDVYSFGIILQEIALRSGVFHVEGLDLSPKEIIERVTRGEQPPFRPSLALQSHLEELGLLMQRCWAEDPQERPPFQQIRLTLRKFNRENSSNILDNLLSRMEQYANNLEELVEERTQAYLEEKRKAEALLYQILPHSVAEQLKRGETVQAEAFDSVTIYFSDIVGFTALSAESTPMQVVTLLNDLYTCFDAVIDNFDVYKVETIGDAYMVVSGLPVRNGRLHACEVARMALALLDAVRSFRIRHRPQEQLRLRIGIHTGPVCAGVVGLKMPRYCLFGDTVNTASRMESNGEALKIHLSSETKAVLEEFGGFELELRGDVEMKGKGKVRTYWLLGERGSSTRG

rat NPR-A = biological target: T2, rat NPR-A (rat, UniProt P18910 29-1057)
T2 sequence (looked up): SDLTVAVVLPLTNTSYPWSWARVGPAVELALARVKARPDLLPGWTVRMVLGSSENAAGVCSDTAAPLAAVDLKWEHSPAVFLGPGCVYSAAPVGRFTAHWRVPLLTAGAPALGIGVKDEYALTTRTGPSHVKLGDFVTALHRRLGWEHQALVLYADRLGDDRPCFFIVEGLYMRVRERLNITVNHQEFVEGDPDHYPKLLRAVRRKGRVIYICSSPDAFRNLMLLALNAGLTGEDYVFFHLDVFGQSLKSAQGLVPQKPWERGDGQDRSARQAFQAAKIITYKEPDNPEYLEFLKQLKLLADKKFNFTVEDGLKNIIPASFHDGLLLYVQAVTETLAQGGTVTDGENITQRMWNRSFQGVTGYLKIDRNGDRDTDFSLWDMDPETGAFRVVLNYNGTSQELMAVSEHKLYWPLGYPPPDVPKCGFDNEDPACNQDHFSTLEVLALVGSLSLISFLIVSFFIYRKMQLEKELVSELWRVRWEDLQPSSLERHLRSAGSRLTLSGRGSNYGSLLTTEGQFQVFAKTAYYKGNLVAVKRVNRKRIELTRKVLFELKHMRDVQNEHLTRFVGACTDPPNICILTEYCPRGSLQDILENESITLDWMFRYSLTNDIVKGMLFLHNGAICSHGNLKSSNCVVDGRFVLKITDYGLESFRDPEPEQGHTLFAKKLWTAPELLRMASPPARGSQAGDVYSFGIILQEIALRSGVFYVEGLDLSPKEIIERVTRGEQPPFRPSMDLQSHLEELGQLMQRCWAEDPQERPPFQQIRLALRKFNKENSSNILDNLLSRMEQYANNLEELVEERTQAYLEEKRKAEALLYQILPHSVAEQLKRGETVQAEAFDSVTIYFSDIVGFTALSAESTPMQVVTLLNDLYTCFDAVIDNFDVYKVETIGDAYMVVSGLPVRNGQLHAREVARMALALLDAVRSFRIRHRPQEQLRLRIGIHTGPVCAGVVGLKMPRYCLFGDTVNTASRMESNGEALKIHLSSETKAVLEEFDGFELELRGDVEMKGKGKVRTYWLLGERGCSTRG

rat NPR-B = biological target: T3, rat NPR-B (rat, UniProt P16067 17-1047)
T3 sequence (looked up): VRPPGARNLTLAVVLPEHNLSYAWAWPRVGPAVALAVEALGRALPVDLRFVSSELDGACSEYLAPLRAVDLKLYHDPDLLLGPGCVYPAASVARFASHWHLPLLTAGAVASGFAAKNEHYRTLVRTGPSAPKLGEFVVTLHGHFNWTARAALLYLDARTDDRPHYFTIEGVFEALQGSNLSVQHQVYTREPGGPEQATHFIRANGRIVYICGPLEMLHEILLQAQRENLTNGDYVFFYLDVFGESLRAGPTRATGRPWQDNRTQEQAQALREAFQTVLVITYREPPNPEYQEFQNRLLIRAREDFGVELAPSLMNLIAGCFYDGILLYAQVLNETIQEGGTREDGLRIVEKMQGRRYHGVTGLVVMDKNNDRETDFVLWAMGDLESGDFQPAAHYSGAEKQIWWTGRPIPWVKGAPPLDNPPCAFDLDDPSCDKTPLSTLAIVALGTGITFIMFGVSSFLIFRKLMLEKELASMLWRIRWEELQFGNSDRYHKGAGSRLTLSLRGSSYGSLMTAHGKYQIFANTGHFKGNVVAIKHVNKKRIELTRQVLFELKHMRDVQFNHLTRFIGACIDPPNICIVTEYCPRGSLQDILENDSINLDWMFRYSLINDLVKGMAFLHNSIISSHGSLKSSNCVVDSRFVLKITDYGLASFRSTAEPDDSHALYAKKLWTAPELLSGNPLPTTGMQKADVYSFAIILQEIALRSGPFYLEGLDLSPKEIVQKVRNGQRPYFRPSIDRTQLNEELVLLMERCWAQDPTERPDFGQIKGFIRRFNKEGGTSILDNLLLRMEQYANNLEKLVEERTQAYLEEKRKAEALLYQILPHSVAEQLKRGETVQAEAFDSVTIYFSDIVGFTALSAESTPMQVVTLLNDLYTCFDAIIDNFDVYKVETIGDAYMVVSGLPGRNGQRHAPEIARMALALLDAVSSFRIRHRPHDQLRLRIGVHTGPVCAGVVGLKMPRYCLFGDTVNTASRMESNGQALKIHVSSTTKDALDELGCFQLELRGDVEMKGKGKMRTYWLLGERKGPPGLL

B1: TPP-10355 (antibody, human IgG1, lambda)
heavy: not shown
light: QSVLTQPPSVSGAPGQRVTISCTGSSSNIGAGYDVHWYQQLPGTAPKLLIYGNSNRPSGVPDRFSGSKSGTSASLAITGLQAEDEADYYCAAWNPNPNPNPNPNGGSGGSLRRSSCFGGRMDRIGAQSGLGCNSFRYGSNPNPNPNPNPNVFGSGTKVTVLGQPKAAPSVTLFPPSSEELQANKATLVCLISDFYPGAVTVAWKADSSPVKAGVETTTPSKQSNNKYAASSYLSLTPEQWKSHRSYSCQVTHEGSTVEKTVAPTECS
In the case of B1, the activity rcs (human NPRA) is reported as 94%, the “average rel logEC50” value (human NPRA) is reported as -0.2 delta logEC50 vs TPP-5661 and the rel. activity rcs (human NPRA) is reported as 0.1 delta logEC50 vs TPP-5661. The “rel. logEC50 pcs 2” value (human NPRA) was -0.6 delta logEC50 vs TPP-5661, the “rel. logEC50 pcs 3” value (human NPRA) was 0.2 delta logEC50 vs TPP-5661 and the “rel. logEC50 pcs 4” value (human NPRA) was -0.3 delta logEC50 vs TPP-5661.

B2: TPP-11156 (antibody, human IgG1, lambda)
heavy: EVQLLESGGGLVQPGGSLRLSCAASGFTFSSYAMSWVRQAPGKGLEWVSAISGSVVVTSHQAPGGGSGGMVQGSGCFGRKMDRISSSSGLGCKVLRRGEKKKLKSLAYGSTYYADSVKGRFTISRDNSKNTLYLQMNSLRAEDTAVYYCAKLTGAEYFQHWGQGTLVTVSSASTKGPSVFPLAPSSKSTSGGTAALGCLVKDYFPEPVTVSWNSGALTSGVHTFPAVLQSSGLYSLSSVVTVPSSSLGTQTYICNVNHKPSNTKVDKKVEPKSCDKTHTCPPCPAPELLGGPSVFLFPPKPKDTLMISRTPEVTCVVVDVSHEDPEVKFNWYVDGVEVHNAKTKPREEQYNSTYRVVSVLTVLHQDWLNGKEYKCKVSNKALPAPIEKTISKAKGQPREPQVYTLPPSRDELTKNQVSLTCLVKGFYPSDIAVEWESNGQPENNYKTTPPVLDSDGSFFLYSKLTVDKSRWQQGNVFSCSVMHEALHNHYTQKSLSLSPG
light: QSVLTQPPSVSGAPGQRVTISCTGSSSNIGAGYDVHWYQQLPGTAPKLLIYGNSNRPSGVPDRFSGSKSGTSASLAITGLQAEDEADYYCQSYDSSLSGVVFGGGTKLTVLGQPKAAPSVTLFPPSSEELQANKATLVCLISDFYPGAVTVAWKADSSPVKAGVETTTPSKQSNNKYAASSYLSLTPEQWKSHRSYSCQVTHEGSTVEKTVAPTECS
For B2, the “EC50, fluorescence signal of rat NPR-A / CNGA2 (cGMP biosensor) / GCaMP6 CHO reporter cells” value (rat NPR-A) was 1200 nM and the “EC50 on rNPRA reporter cells” value (rat NPR-A) was greater than 1000 nM.

B3: TPP-9902 (antibody)
heavy: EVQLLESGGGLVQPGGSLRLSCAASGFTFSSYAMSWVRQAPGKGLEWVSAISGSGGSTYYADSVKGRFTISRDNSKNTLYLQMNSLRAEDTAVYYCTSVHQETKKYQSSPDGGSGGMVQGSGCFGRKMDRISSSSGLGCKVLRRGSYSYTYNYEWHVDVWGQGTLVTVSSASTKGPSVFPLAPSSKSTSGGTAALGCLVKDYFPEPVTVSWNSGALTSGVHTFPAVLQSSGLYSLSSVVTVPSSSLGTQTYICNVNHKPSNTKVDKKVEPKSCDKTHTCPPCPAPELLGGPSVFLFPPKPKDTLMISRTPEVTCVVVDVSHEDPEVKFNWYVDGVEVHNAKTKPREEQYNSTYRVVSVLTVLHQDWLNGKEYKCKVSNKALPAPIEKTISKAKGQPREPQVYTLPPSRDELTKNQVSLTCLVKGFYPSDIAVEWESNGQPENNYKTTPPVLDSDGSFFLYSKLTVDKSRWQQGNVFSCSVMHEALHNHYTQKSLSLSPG
light: QSVLTQPPSVSGAPGQRVTISCTGSSSNIGAGYDVHWYQQLPGTAPKLLIYGNSNRPSGVPDRFSGSKSGTSASLAITGLQAEDEADYYCQSYDSSLSGVVFGGGTKLTVLGQPKAAPSVTLFPPSSEELQANKATLVCLISDFYPGAVTVAWKADSSPVKAGVETTTPSKQSNNKYAASSYLSLTPEQWKSHRSYSCQVTHEGSTVEKTVAPTECS
In the case of B3, the “EC50, fluorescence signal of rat NPR-A / CNGA2 (cGMP biosensor) / GCaMP6 CHO reporter cells” value (rat NPR-A) is reported as 2300 nM and the “EC50 on rNPRA reporter cells” value (rat NPR-A) is reported as greater than 1000 nM.

B4: TPP-10992 (antibody, human IgG4 S228P, lambda)
heavy: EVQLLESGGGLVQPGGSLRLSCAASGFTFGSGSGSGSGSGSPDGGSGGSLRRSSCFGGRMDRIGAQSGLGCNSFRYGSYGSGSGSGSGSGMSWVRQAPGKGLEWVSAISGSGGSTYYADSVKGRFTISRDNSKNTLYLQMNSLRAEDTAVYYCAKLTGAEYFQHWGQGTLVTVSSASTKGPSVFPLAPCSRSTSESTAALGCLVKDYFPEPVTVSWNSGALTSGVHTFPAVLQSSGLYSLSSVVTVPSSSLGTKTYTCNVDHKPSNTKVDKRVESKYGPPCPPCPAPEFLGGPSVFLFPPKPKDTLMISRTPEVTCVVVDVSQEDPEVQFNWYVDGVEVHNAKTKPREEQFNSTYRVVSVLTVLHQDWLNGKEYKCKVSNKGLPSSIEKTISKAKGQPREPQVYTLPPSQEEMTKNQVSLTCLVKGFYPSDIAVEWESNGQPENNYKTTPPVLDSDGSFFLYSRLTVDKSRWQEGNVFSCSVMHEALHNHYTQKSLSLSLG
light: QSVLTQPPSVSGAPGQRVTISCTGSSSNIGAGYDVHWYQQLPGTAPKLLIYGNSNRPSGVPDRFSGSKSGTSASLAITGLQAEDEADYYCQSYDSSLSGVVFGGGTKLTVLGQPKAAPSVTLFPPSSEELQANKATLVCLISDFYPGAVTVAWKADSSPVKAGVETTTPSKQSNNKYAASSYLSLTPEQWKSHRSYSCQVTHEGSTVEKTVAPTECS
For B4, the “EC50, fluorescence signal of rat NPR-A / CNGA2 (cGMP biosensor) / GCaMP6 CHO reporter cells” value (rat NPR-A) was 180 nM.

B5: TPP-9465 (antibody)
heavy: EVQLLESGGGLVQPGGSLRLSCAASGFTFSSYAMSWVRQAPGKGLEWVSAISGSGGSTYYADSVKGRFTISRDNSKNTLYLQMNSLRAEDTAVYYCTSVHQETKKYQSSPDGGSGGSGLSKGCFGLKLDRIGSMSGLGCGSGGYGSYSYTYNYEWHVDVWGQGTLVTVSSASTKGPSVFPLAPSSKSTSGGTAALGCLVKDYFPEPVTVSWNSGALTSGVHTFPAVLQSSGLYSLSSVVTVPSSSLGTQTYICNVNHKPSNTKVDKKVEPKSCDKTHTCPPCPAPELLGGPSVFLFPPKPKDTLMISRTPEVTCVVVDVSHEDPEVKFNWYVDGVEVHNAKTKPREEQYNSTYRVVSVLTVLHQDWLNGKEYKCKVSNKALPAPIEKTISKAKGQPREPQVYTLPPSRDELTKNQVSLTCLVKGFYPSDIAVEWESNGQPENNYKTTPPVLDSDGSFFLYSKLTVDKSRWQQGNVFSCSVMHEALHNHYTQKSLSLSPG
light: QSVLTQPPSVSGAPGQRVTISCTGSSSNIGAGYDVHWYQQLPGTAPKLLIYGNSNRPSGVPDRFSGSKSGTSASLAITGLQAEDEADYYCQSYDSSLSGVVFGGGTKLTVLGQPKAAPSVTLFPPSSEELQANKATLVCLISDFYPGAVTVAWKADSSPVKAGVETTTPSKQSNNKYAASSYLSLTPEQWKSHRSYSCQVTHEGSTVEKTVAPTECS
With B5 the “EC50, luminescence signal of rat NPR-B reporter cells” value (rat NPR-B) was 5.2 nM.

B6: TPP-11157 (antibody, V domains shown)
VH: GFTFSSYAMSWVRQAPGKGLEWVSAISGSVVVTSHQAPGGGSGGGEKKKLKSLAYGSTYYADSVKGRFTISRDNSKNTLYLQMNSLRAEDTAVYYCAKLTGAEYFQHWGQGTLVTVSS
VL: QSVLTQPPSVSGAPGQRVTISCTGSSSNIGAGYDVHWYQQLPGTAPKLLIYGNSNRPSGVPDRFSGSKSGTSASLAITGLQAEDEADYYCQSYDSSLSGVVFGGGTKLTVLG
With B6 the “EC50, fluorescence signal of rat NPR-A / CNGA2 (cGMP biosensor) / GCaMP6 CHO reporter cells” value (rat NPR-A) was 11 nM and the “EC50 on rNPRA reporter cells” value (rat NPR-A) was less than 20 nM.

B7: TPP-11155 (antibody, V domains shown)
VH: EVQLLESGGGLVQPGGSLRLSCAASGFTFSSYAMSWVRQAPGKGLEWVSAISGSGGSTYYADSVKGRFTISRDNSKNTLYLQMNSLRAEDTAVYYCTSVHQETKKYQSSPDGGSYSYTYNYEWHVDVWGQGTLVTVSS
VL: QSVLTQPPSVSGAPGQRVTISCTGSSSNIGAGYDVHWYQQLPGTAPKLLIYGNSNRPSGVPDRFSGSKSGTSASLAITGLQAEDEADYYCQSYDSSLSGVVFGGGTKLTVLG
For B7, the “EC50, fluorescence signal of rat NPR-A / CNGA2 (cGMP biosensor) / GCaMP6 CHO reporter cells” value (rat NPR-A) was 12 nM and the “EC50 on rNPRA reporter cells” value (rat NPR-A) was less than 20 nM.

B8: TPP-11154 (antibody, V domains shown)
VH: EVQLLESGGGLVQPGGSLRLSCAASGFTFSSYAMSWVRQAPGKGLEWVSAISGSGGSTYYADSVKGRFTISRDNSKNTLYLQMNSLRAEDTAVYYCTSVHQETKKYQSSPDGGSGGGSYSYTYNYEWHVDVWGQGTLVTVSS
VL: QSVLTQPPSVSGAPGQRVTISCTGSSSNIGAGYDVHWYQQLPGTAPKLLIYGNSNRPSGVPDRFSGSKSGTSASLAITGLQAEDEADYYCQSYDSSLSGVVFGGGTKLTVLG
B8 was tested, and the “EC50, fluorescence signal of rat NPR-A / CNGA2 (cGMP biosensor) / GCaMP6 CHO reporter cells” value (rat NPR-A) was 7 nM and the “EC50 on rNPRA reporter cells” value (rat NPR-A) was less than 20 nM.

B9: TPP-11153 (antibody, V domains shown)
VH: EVQLLESGGGLVQPGGSLRLSCAASGFTFSSYAMSWVRQAPGKGLEWVSAISGSGGSTYYADSVKGRFTISRDNSKNTLYLQMNSLRAEDTAVYYCTSVHQETKKYQSSPDGGSGGSGGGSYSYTYNYEWHVDVWGQGTLVTVSS
VL: QSVLTQPPSVSGAPGQRVTISCTGSSSNIGAGYDVHWYQQLPGTAPKLLIYGNSNRPSGVPDRFSGSKSGTSASLAITGLQAEDEADYYCQSYDSSLSGVVFGGGTKLTVLG
For B9, the “EC50, fluorescence signal of rat NPR-A / CNGA2 (cGMP biosensor) / GCaMP6 CHO reporter cells” value (rat NPR-A) was greater than 1900 nM and the “EC50 on rNPRA reporter cells” value (rat NPR-A) was greater than 1000 nM.

Reference: US20250361282A1 (Bayer, published 2025)
